Columns and labels:
border cells = test: Border cell migration in stage 10 egg chambers expressing Catsup RNAi (rescue by co-expressed transgenes); type: in vivo, Drosophila; settings: co-expressed with Catsup RNAi in border cells
Description: Border cell clusters are composed of 4-6 migratory cells that surround and carry two non-migratory polar cells. Expression of a Catsup RNAi line in outer, migratory border cells using fruitlessGal4^51 inhibited migration (FIG. 2A). The defect was rescued by co-expression of UAS-CatsupV5 (FIG. 2B). Reduction of Catsup::GFP confirmed the effectiveness of the RNAi (FIGS. 2C, C′ and 2D, D′). Border cell migration was also impaired when Catsup RNAi was driven by c306Gal4 (FIG. 2E), which is expressed in both polar and migratory cells.
ZIP7 resides in the ER membrane and transports Zn^2+ from the ER to the cytosol^64. To test whether the Zn^2+ transporter activity of Catsup was important for border cell migration, we introduced point mutations, H315A and H344A, which replace histidine residues that are required for Zn^2+ transport and are conserved between Catsup, ZIP7 and a more distant family member from Arabidopsis IRT1. […] We generated transgenic flies expressing the mutants under Gal4/UAS control and included a V5 tag so that we could monitor protein abundance and localization. We then co-expressed each of these RNAi-resistant transgenes with CatsupRNAi and evaluated protein expression and border cell migration (FIGS. 5B-5E). […] All the proteins were stably expressed and correctly localized to the ER (FIGS. 5B-5E), therefore the lack of rescue was likely a consequence of impaired transporter activity rather than impaired expression, localization, or another function. […] From these experiments, we conclude that Zn^2+ transport is an essential function of Catsup in promoting ERAD.
Catsup mutant fly was generated by ethyl methanesulfonate (EMS) mutagen^37. The mutation results in glycine(G) to aspartic acid(D) replacement at amino acid 178. The FLP/FRT system was used to generate the Catsup^G178D homozygous mutant clones by combining FRT40A-Catsup^G178D with hsFLP12,yw;ubi:GFPnls, FRT40A or hsFLP12,yw;ubi:RFPnls, FRT40A/(CyO). Catsup::GFP expression pattern visualized by the line from VDRC 318542 in the fTRG stocks library. The UAS-CatsupRNAi transgenic line is from VDRC 100095 P{KK103630}VIE-260B. Wild type rescue w[*]; sna[Sco]/CyO; P{w[+mCJ=UAS-Catsup. V5}6 Bloomington 63229. Additional transgenic Drosophila stocks used: UAS-wRNAi/Cyo is a lab stock, UAS-PleRNAi Bloomington 25796 y[1] v[1]; P{y[+t7.7] v[+t1.8]=TRiP.JF01813}attP2, UAS-Ple is Bloomington 37539 w[*]; P{w[+mC]=UAS-ple.T}331f2, O-fucosyltransferasel Bloomington 9376 P{UAS-O-fut.}]1.1, UAS-Notch.Intracellular.Domain on third chromosome was a gift from Artavanis-Tsakonas lab^71. The ER stress marker UAS-Xbp1-EGFP.HG Bloomington 60731 w[*]; P{w[+mC]=UAS-Xbp1.EGFP.HG}3, UAS-HSC70-3 Bloomington 5843 w[126]; P{w[+mC]=UAS-Hsc70-3. WT}B. Catsup point mutations were cloned into vector pUASt-attb with forward primer ctctgaatagggaattggg[…] (SEQ ID NO:1) and reverse primer ccgcagatctgttaacgtca[…] (SEQ ID NO:2). The vector was injected to attp2 flies y1 w67c23; P{CaryP}attP2 by BestGene Inc.
When generating UAS-Catsup-point-mutations, we designed the construct so it cannot be targeted by the CatsupRNAi sequences by substituting redundant codons for the same amino acids within the region targeted by the RNAi. The RNAi resistant sequence is below with nucleic acid substitutions in lower case:
Point mutations were designed by changing codons at the following site CatsupH183A (CAC to GCC), CatsupH187A (CAT to GCT), CatsupH315A (CAT to GCT), CatsupH344A ([…]). […]

Notch and EGFR = test: Intracellular accumulation of Notch and EGFR in mosaic clones expressing CatsupRNAi; type: in vivo, Drosophila; settings: mosaic expression with CatsupRNAi
Description: In wing imaginal disc epithelia, multiple transmembrane receptor proteins, including Notch and EGFR, accumulate abnormally in Catsup mutant cells^40. We similarly found abnormal intracellular accumulation of Notch in follicle cells generally (FIG. 3D, D′) and border cells specifically (FIG. 3E, E′) upon Catsup knockdown. […] As in imaginal discs, EGFR also accumulated abnormally in Catsup RNAi-expressing border cells (FIG. 3G, G′) and epithelial follicle cells (FIG. 3H, H′), whereas E-Cadherin was unaffected (FIG. 31, I′). From these observations, we conclude that Catsup prevents intracellular accumulation of particular transmembrane proteins and promotes Notch signaling, migration and survival in multiple cell types and organisms.
ZIP7 resides in the ER membrane and transports Zn^2+ from the ER to the cytosol^64. To test whether the Zn^2+ transporter activity of Catsup was important for border cell migration, we introduced point mutations, H315A and H344A, which replace histidine residues that are required for Zn^2+ transport and are conserved between Catsup, ZIP7 and a more distant family member from Arabidopsis IRT1. […] We then co-expressed each of these RNAi-resistant transgenes with CatsupRNAi and evaluated protein expression and border cell migration (FIGS. 5B-5E). […]

Molecule | rescue of border cell migration defect (border cells) | rescue of accumulation of Notch and EGFR (Notch and EGFR)
Catsup^H187A: V5-tagged RNAi-resistant Catsup point mutant that does not disrupt Zn2+ transport (control) (protein, UniProt Q9V3A4 1-449, looked up, variant H187A, V5 tag) Protein catecholamines up: MAKQVADYQCSKLQLYQKLALVVILGAVLFSLPALCAGQGNPSFKYSREANENFDPQKAPRAEHHHHHDHDHDHGHHHHGHDHDHDHDHGHDHGHHHHGHDHDHDHDHGHHHHGHDERHTKAKPDLDMSTIWLHSIGSTLLISAAPFVLLYIIPLDNSEAMKPRLKVLLAFASGGLLGDAFLHLIPAATHPHSHGEHGHDHGHDHHHHHDGEEHEHGHSHDMSIGLWVLGGIIAFLSVEKLVRILKGGHGGHGHSHGAPKPKPVPAKKKSSDKEDSGDGDKPAKPAKIKSKKPEAEPEGEVEISGYLNLAADFAHNFTDGLAIGASYLAGNSIGIVTTITILLHEVPHEIGDFAILIKSGCSRRKAMLLQLVTALGALAGTALALLGAGGGDGSAPWVLPFTAGGFIYIATVSVLPELLEESTKLKQSLKEIFALLTGVALMIVIAKFE | rescue border cell migration to nearly wild type levels | did
Catsup^H183A: V5-tagged RNAi-resistant Catsup point mutant that does not disrupt Zn2+ transport (control) (protein, UniProt Q9V3A4 1-449, looked up, variant H183A, V5 tag) Protein catecholamines up: MAKQVADYQCSKLQLYQKLALVVILGAVLFSLPALCAGQGNPSFKYSREANENFDPQKAPRAEHHHHHDHDHDHGHHHHGHDHDHDHDHGHDHGHHHHGHDHDHDHDHGHHHHGHDERHTKAKPDLDMSTIWLHSIGSTLLISAAPFVLLYIIPLDNSEAMKPRLKVLLAFASGGLLGDAFLALIPHATHPHSHGEHGHDHGHDHHHHHDGEEHEHGHSHDMSIGLWVLGGIIAFLSVEKLVRILKGGHGGHGHSHGAPKPKPVPAKKKSSDKEDSGDGDKPAKPAKIKSKKPEAEPEGEVEISGYLNLAADFAHNFTDGLAIGASYLAGNSIGIVTTITILLHEVPHEIGDFAILIKSGCSRRKAMLLQLVTALGALAGTALALLGAGGGDGSAPWVLPFTAGGFIYIATVSVLPELLEESTKLKQSLKEIFALLTGVALMIVIAKFE | rescue border cell migration to nearly wild type levels | did
Catsup^H315A: V5-tagged RNAi-resistant Catsup point mutant replacing a histidine required for Zn2+ transport (protein, UniProt Q9V3A4 1-449, looked up, variant H315A) Protein catecholamines up: MAKQVADYQCSKLQLYQKLALVVILGAVLFSLPALCAGQGNPSFKYSREANENFDPQKAPRAEHHHHHDHDHDHGHHHHGHDHDHDHDHGHDHGHHHHGHDHDHDHDHGHHHHGHDERHTKAKPDLDMSTIWLHSIGSTLLISAAPFVLLYIIPLDNSEAMKPRLKVLLAFASGGLLGDAFLHLIPHATHPHSHGEHGHDHGHDHHHHHDGEEHEHGHSHDMSIGLWVLGGIIAFLSVEKLVRILKGGHGGHGHSHGAPKPKPVPAKKKSSDKEDSGDGDKPAKPAKIKSKKPEAEPEGEVEISGYLNLAADFAANFTDGLAIGASYLAGNSIGIVTTITILLHEVPHEIGDFAILIKSGCSRRKAMLLQLVTALGALAGTALALLGAGGGDGSAPWVLPFTAGGFIYIATVSVLPELLEESTKLKQSLKEIFALLTGVALMIVIAKFE | neither Castup^H344A nor Catsup^H315A provided significant rescue | 
O-fucosyltransferase-1: Notch specific chaperone, overexpressed from a UAS transgene (protein, UniProt Q9V6X7 24-402, looked up) GDP-fucose protein …: QLGGDPNGYLTYCPCMGRFGNQADHFLGSLAFAKALNRTLILPPWVEYRRGELRSRQVPFNTYFEVEPLKEYHRVITMADFMWHLADDIWPESERVSFCYKERYSLQQEKNDPDKPNCHAKDGNPFGPFWDTFHIDFVRSEFYAPLHFDVHHSNEAAKWQTKYPAESYPVLAFTGAPASFPVQLENCKLQRYLQWSQRYREASKDFIREQLPRGAFLGIHLRNGIDWVRACEHVKDSQHLFASPQCLGYKNERGALYPELCMPSKEAIIRQLKRTIKNVRQTQPDNEIKSVFVASDSNHMIGELNTALSRMGISVHKLPEDDPYLDLAILGQSNHFIGNCISSYSAFEKRERDVHGFPSYFWGFPKEKDRKHTNVHEEL | neither NICD expression nor overexpression of the Notch specific chaperone O-fucosyltransferase-1^58 was sufficient to rescue Catsup RNAi | 

Reference: patent US20250000945A1, “Suppression of Neurodegeneration with Zinc Transporter Protein 7” (The Regents of the University of California, priority 2021, published 2025)
